Assay results as given in US20160083465A1 (AVEO PHARMACEUTICALS, published 2016).

T1: mouse IgG1 Fc-mature human GDF15 fusion protein (mFc-rhGDF15) (mouse; human)
T1 construct: Made in CHOK1SV cells, purified by Protein A and size exclusion; also called mouse Fc fused to human GDF15
T1 chain: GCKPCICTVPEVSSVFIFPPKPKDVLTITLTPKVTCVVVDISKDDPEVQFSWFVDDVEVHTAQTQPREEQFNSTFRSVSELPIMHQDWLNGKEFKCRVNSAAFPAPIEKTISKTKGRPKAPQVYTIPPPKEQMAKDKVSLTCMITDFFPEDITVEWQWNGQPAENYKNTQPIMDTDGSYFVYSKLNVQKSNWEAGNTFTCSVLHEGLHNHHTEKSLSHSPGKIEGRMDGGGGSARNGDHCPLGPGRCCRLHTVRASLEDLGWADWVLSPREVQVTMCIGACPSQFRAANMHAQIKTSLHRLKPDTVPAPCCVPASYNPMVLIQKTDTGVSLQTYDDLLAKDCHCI

T2: rabbit IgG1 Fc-mature mouse GDF15 fusion protein (rFc-rmGDF15) (rabbit; mouse)
T2 construct: also called rabbit Fc mature recombinant mouse GDF15
T2 chain: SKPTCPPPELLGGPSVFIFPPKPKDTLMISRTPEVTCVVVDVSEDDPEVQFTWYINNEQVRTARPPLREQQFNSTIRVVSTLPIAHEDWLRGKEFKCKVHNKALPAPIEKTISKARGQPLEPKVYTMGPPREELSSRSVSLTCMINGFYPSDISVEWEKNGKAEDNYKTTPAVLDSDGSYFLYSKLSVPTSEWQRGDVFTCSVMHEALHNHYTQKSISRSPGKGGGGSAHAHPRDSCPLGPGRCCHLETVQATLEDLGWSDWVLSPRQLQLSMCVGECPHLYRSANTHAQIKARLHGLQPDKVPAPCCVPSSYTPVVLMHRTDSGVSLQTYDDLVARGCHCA

T3: mouse Fc mature recombinant cynomolgus monkey GDF15 (mFc-rcGDF15) (mouse; cynomolgus monkey, UniProt G7PWZ3 193-308)
T3 construct: mature; not shown: mouse Fc and any linker
T3 sequence (looked up): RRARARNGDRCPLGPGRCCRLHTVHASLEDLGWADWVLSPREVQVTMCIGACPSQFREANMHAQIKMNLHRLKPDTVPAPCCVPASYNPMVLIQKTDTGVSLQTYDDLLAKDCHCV

T4: cleaved-rhGDF15 (human, UniProt Q99988 197-308)
T4 sequence: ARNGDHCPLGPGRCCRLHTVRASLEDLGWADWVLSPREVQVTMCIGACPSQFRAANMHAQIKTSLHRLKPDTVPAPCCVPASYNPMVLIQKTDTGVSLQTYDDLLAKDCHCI


Key:
[1] = target: T1, mouse IgG1 Fc-mature human GDF15 fusion …; experiment: SPR Biacore T100, 37 C, antibody captured by anti-mouse IgG, antigen in solution
Description: Rabbit anti-mouse IgGs (GE Healthcare) were immobilized on carboxymethylated dextran CM4 sensor chips (GE Healthcare) by amine coupling, according to a standard protocol. Analyses were performed at 37° C. using PBS containing 0.05% surfactant P20 as running buffer. The antibodies were captured in individual flow cells at a flow rate of 10 μL/minute. Injection time was varied for each antibody to yield an Rmax between 30 and 60 RU. 250 μg/mL mouse Fc (Jackson ImmunoResearch, West Grove, Pa.) was injected at 30 μL/minute for 120 seconds to block non-specific binding of capture antibodies to mouse Fc portion of the recombinant GDF15 protein when needed. […] The dissociation phase was monitored for up to 1500 seconds. The surface was then regenerated with two 60-second injections of 10 mM Glycine-HCl, pH 1.7, at a flow rate of 30 μL/minute.
Kinetic parameters were determined using the kinetic function of the BIAevaluation software (GE Healthcare) with double reference subtraction.

[2] = target: T2, rabbit IgG1 Fc-mature mouse GDF15 …; experiment: SPR Biacore T100, 37 C, purified antibody captured by anti-human IgG Fc, antigen in solution
Description: (§1) Goat anti-human IgGs (Fc fragment specific, Jackson ImmunoResearch, West Grove, Pa.) were immobilized on carboxymethylated dextran CM4 sensor chips by amine coupling, according to a standard protocol. Analyses were performed at 37° C. using PBS containing 0.05% surfactant P20 as running buffer. The antibodies were captured in individual flow cells at a flow rate of 10 μL/minute. Injection time was varied for each antibody to yield an Rmax between 30 and 60 RU. […] The dissociation phase was monitored for up to 1500 seconds. The surface was then regenerated with two 60-second injections of 10 mM Glycine-HCl, pH 2.25, at a flow rate of 30 μL/minute.
(§2) Kinetic parameters were determined using the kinetic function of the BIAevaluation software (GE Healthcare) with double reference subtraction. Kinetic parameters for each antibody, kₐ (association rate constant), kd (dissociation rate constant), and KD (equilibrium dissociation constant) were determined Kinetic values of purified monoclonal antibodies on mFc-rhGDF15, mature human GDF15, rFc-rmGDF15, and mFc-rcGDF15 are summarized in Table 27.

[3] = target: T3, mouse Fc mature recombinant cynomolgus …; experiment: as above
Description: as §1, §2

[4] = target: T1, mouse IgG1 Fc-mature human GDF15 fusion …; experiment: as above
Description: as §1, §2

cleaved-rhGDF15 = target: T4, cleaved-rhGDF15; experiment: as above
Description: as §1, §2

Kd [1] | koff [1] | kon [1] | Kd [2] | koff [2] | kon [2] | Kd [3] | koff [3] | kon [3] | Kd [4] | koff [4] | kon [4] | Kd (cleaved-rhGDF15) | koff (cleaved-rhGDF15) | kon (cleaved-rhGDF15) | Binder
 |  |  | 0.063 nM | 0.0014 s⁻¹ | 2.2e+07 M⁻¹ s⁻¹ | 0.01 nM | 2.4e-05 s⁻¹ | 2.3e+06 M⁻¹ s⁻¹ | 0.0065 nM | 2.1e-05 s⁻¹ | 5.9e+06 M⁻¹ s⁻¹ | 0.0079 nM | 3.4e-05 s⁻¹ | 7.9e+06 M⁻¹ s⁻¹ | Hu01G06-122 (antibody, human IgG1, kappa) heavy: not shown light: DIQMTQSPSSLSASVGDRVTITCRTSENLHNYLAWYQQKPGKAPKLLIYDAKTLADGVPSRFSGSGSGTDYTLTISSLQPEDFATYYCQHFWSSPYTFGQGTKLEIKRTVAAPSVFIFPPSDEQLKSGTASVVCLLNNFYPREAKVQWKVDNALQSGNSQESVTEQDSKDSTYSLSSTLTLSKADYEKHKVYACEVTHQGLSSPVTKSFNRGEC
 |  |  | 0.055 nM | 0.0019 s⁻¹ | 3.7e+07 M⁻¹ s⁻¹ | 0.038 nM | 7.9e-05 s⁻¹ | 2.2e+06 M⁻¹ s⁻¹ | 0.014 nM | 4.4e-05 s⁻¹ | 5.3e+06 M⁻¹ s⁻¹ | 0.01 nM | 6.2e-05 s⁻¹ | 7.3e+06 M⁻¹ s⁻¹ | Hu01G06-135 (antibody, human IgG1, kappa) heavy: not shown light: DIQMTQSPSSLSASVGDRVTITCRTSENLHNYLAWYQQKPGKAPKLLIYDAKTLADGVPSRFSGSGSGTDYTLTISSLQPEDFATYYCQHFWSSPYTFGQGTKLEIKRTVAAPSVFIFPPSDEQLKSGTASVVCLLNNFYPREAKVQWKVDNALQSGNSQESVTEQDSKDSTYSLSSTLTLSKADYEKHKVYACEVTHQGLSSPVTKSFNRGEC

The remaining lines, values behind:

Binder | Kd [1] | koff [1] | kon [1] | Kd [2] | koff [2] | kon [2] | Kd [3] | koff [3] | kon [3] | Kd [4] | koff [4] | kon [4] | Kd (cleaved-rhGDF15) | koff (cleaved-rhGDF15) | kon (cleaved-rhGDF15)
04F08 (antibody, mouse IgG1, kappa, Murine monoclonal from hybridoma, IgG1 kappa; also called antibody 04F08) heavy: QVTLKESGPGILQPSQTLSLTCSFSGFSLSTYGMGVTWIRQPSGKGLEWLAHIYWDDDKRYNPSLKSRLTISKDTSNNQVFLKITSVDTADTATYYCAQTGYSNLFAYWGQGTLVTVSAAKTTPPSVYPLAPGSAAQTNSMVTLGCLVKGYFPEPVTVTWNSGSLSSGVHTFPAVLQSDLYTLSSSVTVPSSTWPSETVTCNVAHPASSTKVDKKIVPRDCGCKPCICTVPEVSSVFIFPPKPKDVLTITLTPKVTCVVVDISKDDPEVQFSWFVDDVEVHTAQTQPREEQFNSTFRSVSELPIMHQDWLNGKEFKCRVNSAAFPAPIEKTISKTKGRPKAPQVYTIPPPKEQMAKDKVSLTCMITDFFPEDITVEWQWNGQPAENYKNTQPIMDTDGSYFVYSKLNVQKSNWEAGNTFTCSVLHEGLHNHHTEKSLSHSPGK light: DIVMTQSQKFMSTSVGDRVSVTCKASQNVGTNVAWYQQKLGQSPKTLIYSASYRYSGVPDRFTGSGSGTDFTLTISNVQSEDLAEYFCQQYNSYPYTFGGGTKLEIKRADAAPTVSIFPPSSEQLTSGGASVVCFLNNFYPKDINVKWKIDGSERQNGVLNSWTDQDSKDSTYSMSSTLTLTKDEYERHNSYTCEATHKTSTSPIVKSFNRNEC | 0.19 nM | 0.00064 s⁻¹ | 3.6e+06 M⁻¹ s⁻¹ |  |  |  |  |  |  |  |  |  |  |  | 
17B11 (antibody, mouse IgG1, kappa, Murine monoclonal from hybridoma, IgG1 kappa; also called antibody 17B11) heavy: QVTLKESGPGILQPSQTLSLTCSFSGFSLSTSGMGVSWIRQPSGKGLEWLAHNDWDDDKRYKSSLKSRLTISKDTSRNQVFLKITSVDTADTATYYCARRVGGLEGYFDYWGQGTTLTVSSAKTTPPSVYPLAPGSAAQTNSMVTLGCLVKGYFPEPVTVTWNSGSLSSGVHTFPAVLQSDLYTLSSSVTVPSSTWPSETVTCNVAHPASSTKVDKKIVPRDCGCKPCICTVPEVSSVFIFPPKPKDVLTITLTPKVTCVVVDISKDDPEVQFSWFVDDVEVHTAQTQPREEQFNSTFRSVSELPIMHQDWLNGKEFKCRVNSAAFPAPIEKTISKTKGRPKAPQVYTIPPPKEQMAKDKVSLTCMITDFFPEDITVEWQWNGQPAENYKNTQPIMDTDGSYFVYSKLNVQKSNWEAGNTFTCSVLHEGLHNHHTEKSLSHSPGK light: DIVLTQSPASLAVSLGQRATISCRASQSVSTSRFSYMHWFQQKPGQAPKLLIKYASNLESGVPARFSGSGSGTDFTLNIHPVEGEDTATYYCQHSWEIPYTFGGGTKLEIKRADAAPTVSIFPPSSEQLTSGGASVVCFLNNFYPKDINVKWKIDGSERQNGVLNSWTDQDSKDSTYSMSSTLTLTKDEYERHNSYTCEATHKTSTSPIVKSFNRNEC | 0.14 nM | 0.00051 s⁻¹ | 3.7e+06 M⁻¹ s⁻¹ |  |  |  |  |  |  |  |  |  |  |  | 
Hu01G06-138 (antibody, human IgG1, kappa) heavy: not shown light: DIQMTQSPSSLSASVGDRVTITCRTSENLHNYLAWYQQKPGKAPKLLIYDAKTLADGVPSRFSGSGSGTDYTLTISSLQPEDFATYYCQHFWSSPYTFGQGTKLEIKRTVAAPSVFIFPPSDEQLKSGTASVVCLLNNFYPREAKVQWKVDNALQSGNSQESVTEQDSKDSTYSLSSTLTLSKADYEKHKVYACEVTHQGLSSPVTKSFNRGEC |  |  |  | 0.044 nM | 0.0008 s⁻¹ | 1.9e+07 M⁻¹ s⁻¹ | 0.025 nM | 5.3e-05 s⁻¹ | 2.3e+06 M⁻¹ s⁻¹ | 0.011 nM | 4.1e-05 s⁻¹ | 5.9e+06 M⁻¹ s⁻¹ | 0.0045 nM | 2.5e-05 s⁻¹ | 7.9e+06 M⁻¹ s⁻¹
Hu01G06-127 (antibody, human IgG1, kappa) heavy: not shown light: DIQMTQSPSSLSASVGDRVTITCRTSENLHNYLAWYQQKPGKSPKLLIYDAKTLADGVPSRFSGSGSGTDYTLTISSLQPEDFATYYCQHFWSDPYTFGQGTKLEIKRTVAAPSVFIFPPSDEQLKSGTASVVCLLNNFYPREAKVQWKVDNALQSGNSQESVTEQDSKDSTYSLSSTLTLSKADYEKHKVYACEVTHQGLSSPVTKSFNRGEC |  |  |  | 0.051 nM | 0.0021 s⁻¹ | 3.9e+07 M⁻¹ s⁻¹ | 0.0095 nM | 1.6e-05 s⁻¹ | 1.8e+06 M⁻¹ s⁻¹ | 0.018 nM | 4.2e-05 s⁻¹ | 4.6e+06 M⁻¹ s⁻¹ | 0.01 nM | 3.6e-05 s⁻¹ | 6.1e+06 M⁻¹ s⁻¹
Hu01G06-146 (antibody, human IgG1, kappa) heavy: not shown light: DIQMTQSPSSLSASVGDRVTITCRTSENLHNYLAWYQQKPGKSPKLLIYDAKTLADGVPSRFSGSGSGTDYTLTISSLQPEDFATYYCQHFWSDPYTFGQGTKLEIKRTVAAPSVFIFPPSDEQLKSGTASVVCLLNNFYPREAKVQWKVDNALQSGNSQESVTEQDSKDSTYSLSSTLTLSKADYEKHKVYACEVTHQGLSSPVTKSFNRGEC |  |  |  | 0.063 nM | 0.00072 s⁻¹ | 1.1e+07 M⁻¹ s⁻¹ | 0.008 nM | 1.5e-05 s⁻¹ | 2e+06 M⁻¹ s⁻¹ | 0.0093 nM | 2.6e-05 s⁻¹ | 5.3e+06 M⁻¹ s⁻¹ | 0.011 nM | 5.2e-05 s⁻¹ | 6.5e+06 M⁻¹ s⁻¹
